Data from US20200292534A1 (published 2020).
Like-named read-outs stand apart in the source and are kept apart here.

Key:
Test in all cases: luminescence complementation titration, one-site specific binding
[1] = biological target: T1, NLpoly11S
T1 chain: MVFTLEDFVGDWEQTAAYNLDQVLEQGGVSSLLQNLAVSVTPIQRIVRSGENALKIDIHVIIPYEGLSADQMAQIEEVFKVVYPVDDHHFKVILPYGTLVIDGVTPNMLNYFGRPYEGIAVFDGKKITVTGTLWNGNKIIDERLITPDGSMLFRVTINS

[2] = biological target: T1, NLpoly11S
[3] = biological target: T1, NLpoly11S

Row | Binder | Kd [1] [nM] | Kd [2] [nM] | Kd [3] [nM]
1 | MNVSGWRLFKKISN (other) [NLpep78-HaloTag] | 30.2 | – | –
2 | VTGYRLFEEIL [NLpep114] | – | 199000 | –
3 | NVSGWRLFKKISN (other) [HaloTag-NLPep78] | 7.21 | – | –
4 | MNVTGYRLFKKISN (other) [NLpep79-HaloTag] | – | – | 22.9
5 | NVTGYRLFKKISN (other) [HaloTag-NLPep79] | – | – | 33.9
6 | GVTGWRLCERILA [NLpep1] | – | 2460 | –
